# Assay results: patent publication CN117025546A
# Experiments:
# [1] = target: GST标签蛋白 (Schistosoma japonicum (Blood fluke)) [GST: P08515]; experiment: indirect ELISA, GST tag protein coated at 10000 to 0.64 ng/mL, antibody at 1 μg/mL
# [2] = target: GST标签蛋白 (Schistosoma japonicum (Blood fluke)) [GST: P08515]; experiment: indirect ELISA, GST tag protein coated in dilution series, antibody at 1 μg/mL
binder,measurement,setting,value
"抗GST单克隆抗体 (杂交瘤细胞株62H9分泌, CCTCC NO:C2021187) (antibody, V domains shown) VH: EVQLQESGPELVKPGASVRMSCKASGYTFTSYFMHWVKQKSGQGLEWIGYINPYHDGTNYNEKFKGKATLTSDKSSSTAYMELSSLTSEDSAVYSCARSQRLHWYFDVWGAGTTVTVSS VL: DIVLTQSPTSLAVSLGQRATISCRASQGVSASSYSYIHWYQQKPGQPPKLLIKYASNLESGVPARFSGSGSGTDFTLNVHPVEEEDTATYYCQHSWEIPLTFGGGTKLEIK",亲和力,[1],20 ng/mL
same,OD (450nm) at antigen 20ng/ml,[2],1 OD
